The values that follow are results of earlier work, collected in paper PMC7443330.

For orientation: Kd means the constant that tells how readily two partners part at equilibrium.

This data set deals with Spike RBD RBD (SARS-CoV-2) (UniProt P0DTC2).

As to Spike binding peptide 1 (SBP1), the equilibrium dissociation constant (Kd) was 47 nM.
